Experimental data published in paper PMC5832863, “Solution structure and dynamics of anti-CRISPR AcrIIA4, the Cas9 inhibitor” (Scientific Reports, 2018).

Experiments:
Conditions in all cases: both partners purified
[1] = biological target: T1, Streptococcus pyogenes Cas9 (a.a. 1-1368) (S. pyogenes, UniProt Q99ZW2 1-1368); assay: ITC; sgRNA-bound SpyCas9 titrated with AcrIIA4; 25 °C; one-site binding model
T1 construct: Cas9 RNA-guided endonuclease of Streptococcus pyogenes, residues 1-1368, synthetic gene in pET28b; the two states are told apart by the assay; also called SpyCas9; apo-SpyCas9; source: E. coli BL21(DE3), purified (HisTrap HP, HiTrap SP, Superdex200)

[2] = biological target: T1, Streptococcus pyogenes Cas9 (a.a. …); assay: ITC; apo-SpyCas9 (no sgRNA): 50 uM SpyCas9 in the cell titrated with 500 uM AcrIIA4; 25 °C; 20 mM sodium phosphate, pH 7.4, 100 mM NaCl, 5 mM BME, 0.01% NaN3; one-site binding model
[3] = biological target: T1, Streptococcus pyogenes Cas9 (a.a. …); assay: as above; remark: listed apart in the source

T1 sequence (Q99ZW2 whole entry, the tested form may be a part): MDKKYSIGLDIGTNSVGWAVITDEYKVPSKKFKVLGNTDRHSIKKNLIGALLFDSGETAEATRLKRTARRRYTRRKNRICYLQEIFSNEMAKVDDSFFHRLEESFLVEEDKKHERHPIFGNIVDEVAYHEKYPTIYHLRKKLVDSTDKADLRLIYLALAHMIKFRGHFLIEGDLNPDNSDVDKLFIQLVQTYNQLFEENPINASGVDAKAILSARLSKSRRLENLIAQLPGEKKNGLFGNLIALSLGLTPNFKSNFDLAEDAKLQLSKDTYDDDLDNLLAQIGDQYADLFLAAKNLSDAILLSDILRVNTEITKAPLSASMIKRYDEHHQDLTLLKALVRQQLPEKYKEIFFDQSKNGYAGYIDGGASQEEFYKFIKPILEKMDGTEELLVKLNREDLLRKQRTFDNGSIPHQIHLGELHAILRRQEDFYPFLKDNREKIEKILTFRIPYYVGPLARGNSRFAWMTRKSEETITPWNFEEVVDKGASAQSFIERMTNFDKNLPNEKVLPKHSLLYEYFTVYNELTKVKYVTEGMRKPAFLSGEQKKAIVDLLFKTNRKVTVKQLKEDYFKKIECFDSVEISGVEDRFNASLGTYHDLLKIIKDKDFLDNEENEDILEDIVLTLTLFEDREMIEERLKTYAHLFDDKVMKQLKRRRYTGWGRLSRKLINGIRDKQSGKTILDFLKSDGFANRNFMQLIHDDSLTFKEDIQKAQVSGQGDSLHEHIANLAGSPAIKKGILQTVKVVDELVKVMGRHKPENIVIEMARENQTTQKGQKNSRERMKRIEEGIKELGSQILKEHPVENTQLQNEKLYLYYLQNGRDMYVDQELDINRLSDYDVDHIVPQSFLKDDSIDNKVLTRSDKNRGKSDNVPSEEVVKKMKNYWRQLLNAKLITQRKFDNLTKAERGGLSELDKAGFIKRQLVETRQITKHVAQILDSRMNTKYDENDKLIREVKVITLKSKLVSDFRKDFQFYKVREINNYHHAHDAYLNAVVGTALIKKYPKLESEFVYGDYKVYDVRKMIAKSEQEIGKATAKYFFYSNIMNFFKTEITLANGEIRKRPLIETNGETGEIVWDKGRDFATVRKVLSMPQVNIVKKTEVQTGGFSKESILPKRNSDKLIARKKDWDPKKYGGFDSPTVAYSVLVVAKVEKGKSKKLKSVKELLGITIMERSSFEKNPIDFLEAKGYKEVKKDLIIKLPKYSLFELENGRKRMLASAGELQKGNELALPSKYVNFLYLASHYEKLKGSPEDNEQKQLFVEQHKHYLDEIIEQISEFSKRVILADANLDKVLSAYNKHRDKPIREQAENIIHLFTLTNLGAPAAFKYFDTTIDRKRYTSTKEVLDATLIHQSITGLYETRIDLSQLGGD

B1: Listeria monocytogenes anti-CRISPR protein AcrIIA4 (a.a. 1-87) (natural protein, Listeria monocytogenes (prophage), UniProt A0A247D711 1-87, looked up)
chain: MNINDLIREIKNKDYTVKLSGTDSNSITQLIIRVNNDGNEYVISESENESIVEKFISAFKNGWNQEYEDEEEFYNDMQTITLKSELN
notes: AcrIIA4, anti-CRISPR protein encoded by Listeria monocytogenes prophages, residues 1-87, synthetic gene; Cloned into a modified pBT7-N-His vector; also called 15N-AcrIIA4; 13C,15N-AcrIIA4; source: E. coli BL21star(DE3), purified (HisTrap, TEV cleavage, Superdex 75, MonoQ); not shown: His6, N-terminal, cleaved
- Kd [1]: 0.0006 ± 0.0001 µM
- dH [1]: -43.1 ± 0.418 kJ/mol
- stoichiometry N [2]: 1
- Kd [3]: 4.8 ± 0.15 µM
- dH [3]: -48.1 ± 2.93 kJ/mol
